Results as given in US20160208005A1 (Astellas, published 2016).

Key:
human TSLP receptor [1] = biological target: T1, human TSLP receptor (human, UniProt Q9HC73 23-371); assay: cell-based or functional assay
T1 sequence (looked up): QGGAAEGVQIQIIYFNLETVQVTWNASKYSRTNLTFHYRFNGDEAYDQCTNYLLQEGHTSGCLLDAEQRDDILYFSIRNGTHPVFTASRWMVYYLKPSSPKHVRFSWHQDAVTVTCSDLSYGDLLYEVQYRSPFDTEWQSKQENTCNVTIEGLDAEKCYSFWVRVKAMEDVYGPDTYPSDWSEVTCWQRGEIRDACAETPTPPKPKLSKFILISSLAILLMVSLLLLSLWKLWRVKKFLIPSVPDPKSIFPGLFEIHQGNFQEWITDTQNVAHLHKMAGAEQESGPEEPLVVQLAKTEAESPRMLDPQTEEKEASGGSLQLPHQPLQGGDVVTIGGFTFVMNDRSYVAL

[2] = biological target: T2, human TSLP receptor-mouse Fc fusion protein (human (receptor part), mouse (Fc part)); assay: SPR (Biacore 2000), antibody captured on CM5 chip by Human Antibody Capture Kit, human TSLP receptor-mouse Fc as analyte
T2 construct: Expressed in FreeStyle 293 cells and purified on Protein G; also called fusion protein of human TSLP receptor and mouse Fc
T2 chain: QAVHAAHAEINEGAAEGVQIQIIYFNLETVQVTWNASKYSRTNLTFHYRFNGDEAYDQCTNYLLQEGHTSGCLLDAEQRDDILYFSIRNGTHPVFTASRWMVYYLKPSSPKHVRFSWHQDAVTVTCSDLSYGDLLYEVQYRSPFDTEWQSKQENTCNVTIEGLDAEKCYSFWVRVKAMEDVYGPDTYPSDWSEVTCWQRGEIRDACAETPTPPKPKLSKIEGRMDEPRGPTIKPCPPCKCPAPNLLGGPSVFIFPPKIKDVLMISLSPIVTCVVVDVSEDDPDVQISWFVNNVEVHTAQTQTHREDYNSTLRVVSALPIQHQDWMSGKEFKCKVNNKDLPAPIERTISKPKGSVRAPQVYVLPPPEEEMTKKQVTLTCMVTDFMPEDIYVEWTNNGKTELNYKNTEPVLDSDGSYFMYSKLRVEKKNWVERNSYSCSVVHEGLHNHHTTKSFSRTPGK
Method: (§1) In the SPR analysis, the analysis was performed using Biacore (registered trademark) 2000 (GE Healthcare Japan Corporation). Respective anti-human TSLP receptor antibodies were immobilized on the surface of a sensor chip CM5 using a Human Antibody Capture Kit and an Amine Coupling Kit (GE Healthcare Japan Corporation). The human TSLP receptor-mouse Fc fusion protein obtained in Example 1 was serially diluted with an HBS-EP solution (GE Healthcare Japan Corporation), and 100 μL of the solution was added to the flow path at a flow rate of 50 μL/min. By this measurement system, binding rate constant (ka), dissociation rate constant (kd), and dissociation constant (KD) of the human TSLP receptor-mouse Fc fusion protein and the anti-human TSLP receptor antibody were calculated using data analysis software (BIA Evaluation) (Table 1).

[3] = biological target: T2, human TSLP receptor-mouse Fc fusion …; assay: SPR (Biacore 2000), antibody captured, human TSLP receptor-mouse Fc as analyte; reference TSLPR-012_141
Method: as §1

human TSLP receptor [4] = biological target: T1, human TSLP receptor; assay: cell-based or functional assay; remark: listed apart in the source

B1: fully human T7-27 (antibody, human IgG1, kappa, V domains shown)
VH: EVQLLESGGGLVQPGGSLRLSCAASGFTFRSSAMHWVRQAPGKGLKWVSSVSGSGAGTYYADSVKGRFTISRDNPKNTLYLQMNSLRAEDTAVYYCVKEGGSRGFDYWGQGTLVTVSS
VL: DIQMTQSPSSLSASVGDRVTITCRASQDISNYLAWFQQKPGKAPKSLIYTASSLQSGVPSKFSGSGSGTDFTLTISSLQPEDFATYYCQQYNLYPPTFGQGTKVEIKR
modifications: deletion of lysine of the heavy chain C terminal occurred in a large part of the purified antibody
notes: Human IgG1/kappa; Expressed in FreeStyle 293 or CHO-K1SV cells; also called fully human antibody of T7-27
fold inhibition activity against TSLP-induced MDC proteins production compared to TSLPR-012_141 (human TSLP receptor [1]): ~9 fold
fold inhibition activity against human TSLP-induced TARC mRNA expression compared to TSLPR-012_141 (human TSLP receptor [1]): ~12 fold
Kd [2]: 4.1 nM
koff [2]: 0.000125 s⁻¹
fold binding activity compared to TSLPR-012_141 [3]: ~3 fold
IC50 (ng/mL); TSLP-induced MDC proteins production inhibition using human PBMC (5 ng/mL human TSLP mutant-Flag protein) (human TSLP receptor [4]): 0.12 ng/mL
